From patent EP4538285A1 come the findings set out here.

The assay concerns the target wild-type human PD-1, expressed on cells (PD1-CD28) (human) (UniProt P10747). Briefly: cell-based or functional assay.

wild-type human PD-1, expressed on cells (PD1-CD28) (human), sequence (P10747 other isoform, or with tags, fused parts or gaps limits assumed): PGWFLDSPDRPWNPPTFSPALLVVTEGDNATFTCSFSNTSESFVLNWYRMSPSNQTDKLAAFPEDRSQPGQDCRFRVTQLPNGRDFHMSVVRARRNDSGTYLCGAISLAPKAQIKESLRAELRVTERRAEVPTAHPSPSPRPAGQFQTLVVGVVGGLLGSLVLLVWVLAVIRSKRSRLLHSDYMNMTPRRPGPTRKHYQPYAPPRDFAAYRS

Substance Tilelizumab (antibody) registered an IL-2 concentration (pg/ml) at 0.8 nM of 432 pg/mL, an IL-2 concentration (pg/ml) at 1.6 nM of 440 pg/mL, an IL-2 concentration (pg/ml) at 3.2 nM of 440 pg/mL and an IL-2 concentration (pg/ml) at 6.4 nM of 56.1 pg/mL. The IL-2 concentration (pg/ml) at 12.8 nM is 36.9 pg/mL, the IL-2 concentration (pg/ml) at 25.6 nM amounted to 47.7 pg/mL, the IL-2 concentration (pg/ml) at 51.2 nM turned out to be 80.5 pg/mL and the IL-2 concentration (pg/ml) at 102.4 nM was 126 pg/mL.
